Results published in the supplement of paper PMC12042874.
± gives the uncertainty stated by the source.

Assay: amyloid nucleation score (Sup35N fusion, yeast selection) (log enrichment); library NNK1; higher = more nucleation; inactive = no reads after selection
Method in brief: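 Nucleation score: DiMSum log enrichment of output over input reads, centred on the mode score of non-aggregating sequences. Only sequences with at least 100 input reads were kept. Reads came from Illumina sequencing of plasmid inserts before and after 7 days of growth at 30°C without adenine and uracil, in psi-negative yeast expressing Sup35N fused to peptides of 20 random codons after 24 hours of induction with 100 μM copper sulfate.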
In the case of VLGLLITGDRLS, the amyloid nucleation score is reported as 0.1 ± 1.4. VLGMWIWQYRYGDDYFLLFV showed an amyloid nucleation score of 2.7 ± 0.17. Substance VLGPRWECMNRTYWRRTMVV has an amyloid nucleation score of -0.011 ± 0.31. VLIFAKFYELPGDRRFGTGW gave an amyloid nucleation score of 3.87 ± 0.11. VLINYLKMSDTCNFRLFLFK showed an amyloid nucleation score of 5.916 ± 0.055. VLKHCWVGIFAQW showed an amyloid nucleation score of 9.006 ± 0.052. Substance VLKHFGFCMLPNISAY has an amyloid nucleation score of 0.386 ± 0.4. With VLKRLRTYVYSIFW the amyloid nucleation score was 0.543 ± 0.33. VLLFVVLHLNLSVHILQNFQ gave an amyloid nucleation score of -0.396 ± 0.54. VLLSGDIRCDTSVSVTGLSH showed an amyloid nucleation score of -0.061 ± 0.3. Work on VLLYKSLAV yielded an amyloid nucleation score of 0.964 ± 0.15. Work on VLNEAYYDLYVYSHVSFSVL yielded an amyloid nucleation score of -0.248 ± 0.42. VLPMTGYSRLRPIYRFMFFD showed an amyloid nucleation score of 0.273 ± 0.44. With VLRHS the amyloid nucleation score was -0.779 ± 1. Substance VLRLHAMRQQGICWSCVTGM has an amyloid nucleation score of 0.185 ± 0.39. VLSYL gave an amyloid nucleation score of -0.248 ± 0.38. Work on VLVLNLSLPKSLSNPSMRFG yielded an amyloid nucleation score of 8.028 ± 0.046. VLYLMAAPIVMVYV showed an amyloid nucleation score of 4.31 ± 0.061. For VMFPGKQHT, the amyloid nucleation score was 0.012 ± 0.91. Work on VMFVPLQSVYSAP yielded an amyloid nucleation score of -0.766 ± 2.4. Work on VMGFHT yielded an amyloid nucleation score of -0.402 ± 1.9. VMYEVVHVNDDRCEAWLLSR showed an amyloid nucleation score of -0.018 ± 1.5. Substance VNCLLDQQYR has an amyloid nucleation score of 0.746 ± 0.46. VNCVGKLKFDE showed an amyloid nucleation score of 0.05 ± 0.18. Work on VNEREPYNCCFMRFDTCTSP yielded an amyloid nucleation score of 1.31 ± 0.63. VNFFLFRQCKGSFAWNHTVA showed an amyloid nucleation score of 6.336 ± 0.058. Substance VNGARRQFRRLMPCLEAWVS has an amyloid nucleation score of -0.372 ± 0.32. Work on VNHTKPVDILHC yielded an amyloid nucleation score of 0.521 ± 0.31. For VNILDLKTHLRR, the amyloid nucleation score was “inactive”. VNMSVIWGRVFASEKVYRAK showed an amyloid nucleation score of 0.871 ± 0.56. With VNNRRRVSVHDLRDATPGTF the amyloid nucleation score was 0.099 ± 0.53. In the case of VNSGVNCMTVFVVVSLLSCG, the amyloid nucleation score is reported as 2.98 ± 0.11. VNSSKFKRVIYLV gave an amyloid nucleation score of -0.453 ± 0.27. Substance VNVCYTMMEFVAGVYSGLLR has an amyloid nucleation score of 0.288 ± 0.29. Work on VNVPHKTWIPDGDLRYYLTL yielded an amyloid nucleation score of -0.891 ± 0.85. VNWRGNSRVGIRNRFFCHSH showed an amyloid nucleation score of -0.28 ± 0.72. VNYSNWFSMADSFRSRSFSV gave an amyloid nucleation score of -0.104 ± 1.1. Work on VPCDIYQCFYLSG yielded an amyloid nucleation score of 5.25 ± 0.094. In the case of VPTCMRVYIRGNSHNGMLAA, the amyloid nucleation score is reported as 1.1 ± 0.4. VQHRIISLALVYNTYNFSFS gave an amyloid nucleation score of 8.018 ± 0.074. In the case of VQLRLMDRNREHYGYEESTR, the amyloid nucleation score is reported as 0.22 ± 0.43. In the case of VQNKYRFTLY, the amyloid nucleation score is reported as 1.65 ± 0.33. VQNTWVILRKL gave an amyloid nucleation score of 4.43 ± 0.095. VRCNGDLQDKYRISFCNKSR gave an amyloid nucleation score of 0.01 ± 1.2. Work on VREYMTFQDMYLSGVSTVTL yielded an amyloid nucleation score of 1.08 ± 0.61. For VRHSAIRGLHWSGRILRCGV, the amyloid nucleation score was 1.01 ± 1.1. With VRLAL the amyloid nucleation score was -0.27 ± 0.26. VRLMQIWGV gave an amyloid nucleation score of -0.5 ± 2.1. For VRLMSTAMLRRLELVLYST, the amyloid nucleation score was 0.539 ± 0.32. For VRNKMGSRSYSTS, the amyloid nucleation score was -1.65 ± 2.7. With VRQSGLCIKWEVTRRAKRSV the amyloid nucleation score was 0.699 ± 0.85. Work on VRSNRMTAGTGYWGNSTVKD yielded an amyloid nucleation score of -0.65 ± 0.56. In the case of VRTFWCYCTWPASRYR, the amyloid nucleation score is reported as -0.001 ± 0.51. VRTSYFVAGSGSNAWGGENE showed an amyloid nucleation score of -0.956 ± 0.99. VRVNRLSFLNNALLFWLFAK showed an amyloid nucleation score of 2.3 ± 0.1. Substance VSASLDGPLSVRKGTSKAWD has an amyloid nucleation score of -0.043 ± 1.4. With VSCQQTFASLFFGILAGKSI the amyloid nucleation score was -0.006 ± 0.54. With VSDFGLGHGKQWRCRRQISL the amyloid nucleation score was 0.685 ± 0.79. For VSEIN, the amyloid nucleation score was 2.23 ± 0.57. In the case of VSFLASMLRIGMCLPKQVMW, the amyloid nucleation score is reported as 0.183 ± 0.8. Substance VSFNTFYRRSFPFQLRTTSV has an amyloid nucleation score of 0.329 ± 0.29. VSFRMVLNYLQVGYSWGHWR gave an amyloid nucleation score of 0.395 ± 0.44. VSGRVGKNAGITGM showed an amyloid nucleation score of 0.813 ± 1.1. For VSIGIISII, the amyloid nucleation score was -0.663 ± 1.6. VSIIE showed an amyloid nucleation score of -0.127 ± 0.4. Work on VSILSRI yielded an amyloid nucleation score of -0.842 ± 0.61. In the case of VSINGGEYMSEFAGICGPVD, the amyloid nucleation score is reported as 1.83 ± 0.46. VSKLICVFTGSYRNLEGYRI showed an amyloid nucleation score of 0.041 ± 0.39. For VSLLVSICLLRLSLVSI, the amyloid nucleation score was 0.259 ± 0.58. Work on VSLRTISWNMLLNDCWHVKM yielded an amyloid nucleation score of 0.176 ± 0.72. VSMFRRVASEALYRQPSMLA showed an amyloid nucleation score of 0.972 ± 0.36. In the case of VSMHWSISRCIC, the amyloid nucleation score is reported as 0.772 ± 0.43. VSNTHVNGGWSRRNGQWLGV showed an amyloid nucleation score of -0.708 ± 0.45. In the case of VSPLWSCFTSGVPTDCWSLG, the amyloid nucleation score is reported as 0.275 ± 1.2. Substance VSQSETCPGV has an amyloid nucleation score of 0.433 ± 0.53. Work on VSRLEVPRFLCTLQSTLLSS yielded an amyloid nucleation score of -0.123 ± 0.86. Substance VSRMGVGTIRTQVHGIRGGT has an amyloid nucleation score of -0.522 ± 1.6. In the case of VSRVTASYRFIFNYYEMDTS, the amyloid nucleation score is reported as “inactive”. For VSTYRRDIMLHVITIENKLT, the amyloid nucleation score was 2.29 ± 0.6. VSVNRVFFVSWAISKTIS showed an amyloid nucleation score of -0.689 ± 0.55. For VSWENPSINLRRADLPCPLF, the amyloid nucleation score was 0.521 ± 0.57. VSWHHLVLLKGRLLEVSLSS showed an amyloid nucleation score of -0.158 ± 0.28. In the case of VSYKTGIWGVSCDIDGVY, the amyloid nucleation score is reported as -0.182 ± 0.24. Substance VSYTVSFSFFLFLFNWHSYV has an amyloid nucleation score of 0.147 ± 0.65. For VTACYYSISFCVRGAMYGYV, the amyloid nucleation score was 1.38 ± 0.33. For VTFFHFSQGR, the amyloid nucleation score was 4.79 ± 0.057. VTFHLEARLAGLDLMGYSTS showed an amyloid nucleation score of 0.835 ± 0.53.
